The text below walks through data of the RNAGym collection of RNA variant scans (doi:10.7554/elife.90254).

B1: OR4K15 (parent)
chain: GUUAACGGUCAUAGGCCAUGGAAACUAGGAGCACCAUUUCGCUGCCAGUGAAGAAAUGAACAAAGAAAAUCUGGGCCAGGCAGGCAUCAAAAGAAAUAGUCUUGCGCUCAACCAGAAAGUCUGUAAUCAUUUUAAGGGUA

The data set covers variants of B1. Briefly: self-cleavage, relative activity (ratio to wild type); higher = more cleavage; in vitro, sequencing; the parent is a self-cleaving ribozyme.
Consider A90U U103C, for which the self-cleavage was found to be 1.27. Regarding A89G U127C, the self-cleavage is 1.03.

For the variant A92G A134U, the self-cleavage came out at 2.03.

Turning to A90C A118G, the self-cleavage was 1.04.

Turning to A92G A94G, the self-cleavage is 1.49. On to A91G A117C, for which the self-cleavage stood at 0.67.

A91G A117G: the self-cleavage turned out to be 1.48.

With A92G A117G, the self-cleavage came to 1.47. As to A92G A117U, the self-cleavage amounted to 0.8.

Consider A90G A110U, for which the self-cleavage was determined as 0.94. The same measure for A91G A134G: 0.97. On to A91C U131A, for which the self-cleavage came to 2.16.

A90G U122A: the self-cleavage was determined as 0.84. Turning to A89U U131C, the self-cleavage turned out to be 1.47. The same measure for A89U A90G: 1.48; for A89U U132A: 1.35; for A89U U132C: 1.64. A91G A116U: the self-cleavage was found to be 0.12.

Regarding A90U U124G, the self-cleavage worked out at 1.66. The same measure for A91G U122C: 0.42; for A91G A125G: 0.16; for A91G U139A: 1.64. Turning to A91G U139C, the self-cleavage came out at 1.71. To A91G A110G belongs 0.11; to A91G C128A, 0.44; to A92C A111G, 0.03. With A91U A98G, the self-cleavage was determined as 0.61. Consider A90G G119A, for which the self-cleavage was determined as 0.36. Consider A92G A98G, for which the self-cleavage was found to be 0.74.

Take A89U G104C: the self-cleavage is 0.01. Regarding A92G A129G, the self-cleavage was 0.74.

Consider A90G C112G, for which the self-cleavage is 0. Take A91G C109U: the self-cleavage is 0.4.

On to A90G U132A, for which the self-cleavage came to 0.56. With A90G U132C, the self-cleavage turned out to be 1.12. The same measure for A89G U122A: 1; for A90G U120C: 0.58; for A90G A98G: 0.22. The same measure for A90G A98U: 1.62. To A89U G115U belongs 0.56; to A92G A135U, 2.03; to A89U U108A, 0.02.

As for A90U A91G, the self-cleavage was determined as 1.95. To A92G A95U belongs 1.8; to A91G A140G, 1.21; to A90U U108C, 0.01. To A89U A126U belongs 0.65. To A89G U131C belongs 0.59; to A92C A129G, 1.66.

Regarding A91U A111U, the self-cleavage is 0.23. In the case of A91G A95C, the self-cleavage came to 0.94.

With A91G A95G, the self-cleavage was found to be 1.76. The same measure for A91G U108A: 0.01. Take A90G G104A: the self-cleavage is 0.02. In the case of A89U A91U, the self-cleavage was determined as 1.24. On to A91U U97C, for which the self-cleavage stood at 2.02. Take A91U U97A: the self-cleavage came to 2.19. The same measure for A91G C112U: 0.01; for A90U U100A: 0.15. To A90U U100C belongs 2.02; to A90G A114U, 0.02; to A90G C101U, 0.21. As to A90U U133C, the self-cleavage came out at 1.61. As to A90U A111G, the self-cleavage came out at 0.02. For the variant A89U C121U, the self-cleavage worked out at 2.24.

Regarding A92C C101A, the self-cleavage was 0.13.

As for A91G G93A, the self-cleavage worked out at 1.82. The same measure for A89U A111G: 0.03; for A89U A111U: 0.13. To A91G belongs 0.97; to A91U, 1.74; to A91C, 1.53.

Regarding A92C U103C, the self-cleavage was determined as 0.93. The same measure for A90G U124A: 0.47; for A91U A95G: 2.58; for A90G G137C: 1.19. To A92G C101U belongs 0.12; to A90G A111G, 0.02; to A89U G119A, 2.37. In the case of A90G A118G, the self-cleavage turned out to be 0.47.

For A90G A118U, the self-cleavage came out at 0.45.

As for A90G A118C, the self-cleavage was 0.82. To A91G A126G belongs 0.55; to A89U A118U, 0.73; to A90G A95G, 2.02. To A90G A129G belongs 0.22; to A90G A129U, 0.35; to A89U U124C, 1.38. As to A90G G106C, the self-cleavage is 0.

On to A90U A92G, for which the self-cleavage was 1.38. Consider A91G G99A, for which the self-cleavage stood at 0.21. For A91G U132C, the self-cleavage came to 0.88. For the variant A91G U132A, the self-cleavage was determined as 0.69.

On to A92G A110G, for which the self-cleavage stood at 0.17. As to A90G U103A, the self-cleavage came out at 0.26.

For A90U U131C, the self-cleavage is 2.68.

As to A89U U122A, the self-cleavage was found to be 0.6. The same measure for A91G G138A: 0.95. To A90G C107A belongs 0.02; to A92G A126C, 0.94; to A91U A135U, 1.6.

Turning to A91U U132C, the self-cleavage was found to be 1.62.

With A91U A114U, the self-cleavage is 0.14. A91U A114G: the self-cleavage is 0.62. To A92G A118G belongs 1.26; to A89U A125G, 0.77. A90G A126G: the self-cleavage came out at 0.95.

For the variant A91C A114U, the self-cleavage was determined as 0.05.

A90G U127A: the self-cleavage was determined as 2.66. Take A91C A129G: the self-cleavage was determined as 1.15.

In the case of A91G C105G, the self-cleavage was 0.01. The same measure for A91G C105A: 0.03; for A90G C105U: 0.04.

On to A90U A134U, for which the self-cleavage was 1.96. Turning to A90U A134G, the self-cleavage came out at 1.26. The same measure for A91G U124C: 0.62; for A91G U124A: 1.78.

Regarding A91G A114C, the self-cleavage is 0.02. To A90G A135U belongs 0.39; to A90G A135C, 0.91. Regarding A89U U102C, the self-cleavage is 1.9. The same measure for A89G U139G: 1.4. Take A91C U120C: the self-cleavage amounted to 0.94.

On to A90U U132A, for which the self-cleavage turned out to be 0.72. Consider A90U U127C, for which the self-cleavage was found to be 1.37. The same measure for A89U C109G: 0.01; for A92C A96G: 1.73. The same measure for A89G U130C: 1.79; for A90G A125U: 1.7; for A91G U130C: 0.54. The same measure for A90U A135G: 2.04.

As for A91U A110U, the self-cleavage was 0.82. Turning to A91U A125G, the self-cleavage turned out to be 0.38. To A91U U127C belongs 0.87; to A91G U97A, 1.05. The same measure for A90G U108C: 0.02. Regarding A90G U108A, the self-cleavage is 0.02. Take A92C U132C: the self-cleavage amounted to 1.05.

As to A91G A135G, the self-cleavage came out at 1.06.

On to A92G A114U, for which the self-cleavage was 0.02. For the variant A92G A114G, the self-cleavage stood at 0.29. To A89U A98G belongs 0.66; to A92G A125C, 1.44. The same measure for A92C U124C: 0.52; for A91G A118U: 0.53; for A91G A118C: 0.47. The same measure for A89U A92G: 2.32; for A89G U124A: 1.38; for A91G U103C: 0.46. For the variant A89U U120C, the self-cleavage is 0.5. As to A90U A114U, the self-cleavage turned out to be 0.04. To A91G U102A belongs 0.67.

With A90G A116G, the self-cleavage was 0.8. Regarding A91U A118G, the self-cleavage is 0.94.

A90U A118G: the self-cleavage was determined as 1.24.

With A91G A111G, the self-cleavage was 0.01. The same measure for A91U A94G: 1.54; for A91C A98G: 0.56. The same measure for A91U A117G: 1.88; for A90G U139C: 1.2.

Consider A91G U133C, for which the self-cleavage was determined as 1.1. For the variant A90U A129G, the self-cleavage was 1.51.

As for A90C U100A, the self-cleavage was found to be 0.92. To A90G A92G belongs 1.01; to A89U A96G, 1.73; to A90U U130C, 1.3. To A91U U122C belongs 1.4.
